Reference: PMC11217292

Target: OSM-3 H207Q mutant, EGFP tagged (C. elegans) (UniProt P46873)
Chain of UniProt P46873 (P46873 whole entry H207Q): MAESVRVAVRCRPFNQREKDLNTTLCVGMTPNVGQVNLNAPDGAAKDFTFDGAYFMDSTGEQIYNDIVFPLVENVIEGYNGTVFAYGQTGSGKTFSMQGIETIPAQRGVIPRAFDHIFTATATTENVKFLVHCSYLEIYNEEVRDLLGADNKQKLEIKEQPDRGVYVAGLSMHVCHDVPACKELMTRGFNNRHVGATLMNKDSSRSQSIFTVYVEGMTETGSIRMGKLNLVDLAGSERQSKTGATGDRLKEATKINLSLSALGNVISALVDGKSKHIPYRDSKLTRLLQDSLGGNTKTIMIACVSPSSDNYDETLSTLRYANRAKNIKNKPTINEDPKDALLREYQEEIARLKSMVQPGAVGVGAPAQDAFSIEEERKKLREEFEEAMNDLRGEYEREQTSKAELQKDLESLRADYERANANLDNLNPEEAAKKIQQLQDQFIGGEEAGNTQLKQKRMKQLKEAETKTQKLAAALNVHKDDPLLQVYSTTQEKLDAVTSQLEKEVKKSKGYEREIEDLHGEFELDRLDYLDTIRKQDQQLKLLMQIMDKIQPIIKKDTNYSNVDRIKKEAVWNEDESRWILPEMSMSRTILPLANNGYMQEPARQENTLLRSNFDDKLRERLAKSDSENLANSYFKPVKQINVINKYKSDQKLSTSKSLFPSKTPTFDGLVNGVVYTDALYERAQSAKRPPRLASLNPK

microtubule-stimulated ATPase activity relative to wild-type OSM-3 (set to 100%): 18%
Substance: microtubules (complex)
